# Test system: ORCA-3 (Catharanthus roseus)
# Assay: cell_activity
# Conditions: GUS/CAT, C. roseus cells
# Sequence of ORCA-3 (Catharanthus roseus) (chain, as listed by the source): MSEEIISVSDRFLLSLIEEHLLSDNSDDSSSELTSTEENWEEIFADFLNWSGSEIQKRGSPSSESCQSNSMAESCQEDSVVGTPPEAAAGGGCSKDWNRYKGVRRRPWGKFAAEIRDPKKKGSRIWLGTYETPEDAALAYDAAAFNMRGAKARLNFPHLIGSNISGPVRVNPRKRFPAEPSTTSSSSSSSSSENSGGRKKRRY
substance,measurement,value
Str1 NH promoter (-202 to -1),activity (fold activation),5
